Target: VP11-His (pET-28b/VP11-His) (White spot syndrome virus (WSSV-TW strain))
Assay: cross-linking; VP11-His from clear E. coli lysate held on Ni-NTA beads, washed, 0.05% glutaraldehyde in PBS passed through the column, eluted with 250 mM imidazole, SDS-PAGE and anti-His immunoblot

## VP11-His (pET-28b/VP11-His) (natural protein)
  stoichiometry N: 2
